This passage reports binding results from article PMC8857273.

Series [1] relates to T1, His6-SUMO-MucR1 (Sinorhizobium fredii CCBAU45436 (SF45436)), ORF:2d010df8.
T1 sequence: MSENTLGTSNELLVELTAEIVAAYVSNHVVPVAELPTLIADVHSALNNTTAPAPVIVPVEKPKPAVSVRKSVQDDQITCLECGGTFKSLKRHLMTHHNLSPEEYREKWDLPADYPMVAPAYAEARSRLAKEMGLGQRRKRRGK
Description: EMSA. As to conditions: EMSA: 25 mM Tris pH 7.5, 100 mM KCl, 5 mM MgCl2, 5% glycerol, 0.05% dodecyl maltoside, 0.5 mg/mL BSA, 0.1 mg/mL sonicated salmon sperm DNA; room temperature ….

For series [2], the system named is T2, His6-SUMO-MucR2 (Sinorhizobium fredii CCBAU45436 (SF45436)), ORF:a672ea6f.
T2 sequence: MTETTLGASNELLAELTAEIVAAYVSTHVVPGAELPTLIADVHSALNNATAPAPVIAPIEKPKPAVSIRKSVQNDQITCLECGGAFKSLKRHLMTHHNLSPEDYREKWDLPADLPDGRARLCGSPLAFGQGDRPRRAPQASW
Put plainly: EMSA. To be noted: EMSA: 25 mM Tris pH 7.5, 100 mM KCl, 5 mM MgCl2, 5% glycerol, 0.05% dodecyl maltoside, 0.5 mg/mL BSA, 0.1 mg/mL sonicated salmon sperm DNA; room temperature …. (In general: In EMSA bound probe runs differently from free probe, usually more slowly.)

“CATATTAGATTCGGAAGGACCGACGACGCCCCTCGATCGCTGCCAGTCCACTGACGATTGTTTTGAAGTGTTCAGCTTCCTGGAGATATAACTTCCAAAAGCCGAAATAAAGTTTGGATCATCTTTGATTTTATACAGTTCTCTGCTACTGCCAGAGCGTCTCCGACTTGGTGCATTTTAGCAACAGGCGTCATTCGAAAGTAAAGCTCACTCATCTATATTCGAGCGATTGGCGGCATTGAAGGCACAG (double strand) [visN promoter probe (250 bp)]”: the results for the binding result in series [1] and in series [2] were “binds” and “no binding”, respectively.
